Source: patent US20120108503A1

Target: hepatic leptin receptor (rat) (UniProt Q62959)
Assay: cell-based or functional assay

Chain of UniProt Q62959 (Q62959 22-1162): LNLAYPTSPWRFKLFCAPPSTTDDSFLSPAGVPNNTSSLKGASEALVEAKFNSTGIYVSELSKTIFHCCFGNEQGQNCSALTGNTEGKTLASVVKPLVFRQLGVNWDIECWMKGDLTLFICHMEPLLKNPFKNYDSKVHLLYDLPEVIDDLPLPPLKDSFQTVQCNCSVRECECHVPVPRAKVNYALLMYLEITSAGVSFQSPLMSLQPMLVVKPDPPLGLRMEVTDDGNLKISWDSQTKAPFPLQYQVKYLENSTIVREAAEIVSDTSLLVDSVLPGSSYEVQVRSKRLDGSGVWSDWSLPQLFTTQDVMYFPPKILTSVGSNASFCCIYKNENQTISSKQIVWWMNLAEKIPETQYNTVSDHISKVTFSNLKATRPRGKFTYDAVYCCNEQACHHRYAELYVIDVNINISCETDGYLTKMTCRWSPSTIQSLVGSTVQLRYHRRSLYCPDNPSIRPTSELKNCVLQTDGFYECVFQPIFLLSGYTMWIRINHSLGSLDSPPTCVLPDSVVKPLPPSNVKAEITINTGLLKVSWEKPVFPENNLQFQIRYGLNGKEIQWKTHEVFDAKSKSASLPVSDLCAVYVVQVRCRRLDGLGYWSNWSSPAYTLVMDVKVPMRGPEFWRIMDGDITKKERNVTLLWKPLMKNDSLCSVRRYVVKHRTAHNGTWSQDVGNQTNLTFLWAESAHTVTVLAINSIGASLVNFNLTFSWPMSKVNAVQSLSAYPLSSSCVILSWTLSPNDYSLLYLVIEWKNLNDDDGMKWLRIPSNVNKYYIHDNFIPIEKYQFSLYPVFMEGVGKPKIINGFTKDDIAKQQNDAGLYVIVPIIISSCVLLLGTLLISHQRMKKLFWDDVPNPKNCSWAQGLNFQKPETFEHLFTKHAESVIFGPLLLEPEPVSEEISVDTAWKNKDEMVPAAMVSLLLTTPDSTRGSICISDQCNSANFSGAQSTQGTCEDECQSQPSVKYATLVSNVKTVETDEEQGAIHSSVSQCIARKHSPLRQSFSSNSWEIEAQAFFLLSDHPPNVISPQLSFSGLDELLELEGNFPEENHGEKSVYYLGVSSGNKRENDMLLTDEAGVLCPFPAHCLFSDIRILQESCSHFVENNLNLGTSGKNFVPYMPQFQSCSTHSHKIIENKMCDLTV

Substance: leptin expressed in vivo from adenovirus containing the leptin cDNA (Adv-leptin) (ligand)
- hepatic phosho-STAT-3: 3 fold
